Measured values published in patent publication US20050158323A1, “Methods of killing tumor cells by targeting internal antigens exposed on apoptotic tumor cells” (Vaccinex, Inc., priority 2003, published 2005).

How the values were obtained:
21MT1 tumor cells = assay: Taxol induced apoptosis and C35 exposure, annexin V/PI flow cytometry; format: cell-based, human; details: 0.5 uM, 24 hours
Experimental: 24 hours following treatment with 0.5 uM Taxol™, 21MT1 tumor cells were stained with annexin V-FITC, propidium iodide, and with either 100 ng anti-C35 antibody 1F2 (dark line) or isotype control (grey fill) antibody. Both antibodies were directly conjugated to Alexa-647. Histograms were gated on the cells undergoing apoptosis (annexinV positive/PI negative).
Antibodies were pre-incubated with PAB buffer (FIG. 3A), 100-fold molar excess recombinant C35 protein (FIG. 3B), or 100-fold molar excess β-galactosidase protein (FIG. 3C).

[1] = nude mice; non-toxic dose at indicated schedule; cited from earlier work
[2] = Maximum Tolerated Dose of chemotherapy in xenograft models (Table 6); details: mouse, in vivo, intravenous; nude mice; MTD confirmed by present inventors
From the text: Because of concerns regarding cumulative dose-limiting bone marrow toxicity when combining chemotherapy and radioimmunotherapy, it is necessary to determine the Maximum Tolerated Dose (MTD) of combination therapy and, where toxicity of the two therapeutic agents is additive, adopt strategies that will permit administration of both toxic agents. MTD is established by regulatory criteria related to the time required for platelet and white cell recovery in peripheral circulation. Such standards are familiar to those skilled in the art. In the case of murine models, an often employed surrogate definition of MTD is the maximum dose that results in an average of less than 20% weight loss or less than 10% mortality. Currently established MTD for the most common chemotherapeutic agents employed in standard clinical protocols or in animal models are shown in Tables 6 to 9, below.

C35 protein [3] = biological target: T1, C35 protein (Homo sapiens, UniProt Q9BRT3); assay: Competitive binding ELISA; details: 1F2 versus 1B3
T1 sequence (Q9BRT3 1-115): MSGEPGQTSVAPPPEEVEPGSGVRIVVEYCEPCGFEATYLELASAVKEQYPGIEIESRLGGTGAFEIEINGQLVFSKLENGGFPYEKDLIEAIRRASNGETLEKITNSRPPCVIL
Experimental: (§1) Hybridoma cell lines IF2.4.1 and 1B3.6.1, specific for C35 polypeptides, were prepared using hybridoma technology. (Kohler et al., Nature 256:495 (1975); Kohler et al., Eur. J. Immunol. 6:511 (1976); Kohler et al., Eur. J. Immunol. 6:292 (1976); Hammerling et al., in: Monoclonal Antibodies and T-Cell Hybridomas, Elsevier, N.Y., pp. 571-681 (1981)). Briefly, hybridoma cell lines were generated using standard PEG fusion to the non-secreting myeloma cell line NS-1 (P3/NS1/1-AG4-1, ATCC #TIB-18) of splenocytes from BALB/c mice immunized with syngeneic BCA34 fibroblast tumor cells transduced to overexpress C35. Following PEG fusion to NS-1, the hybridomas were grown in methylcellulose semi-solid media. Approximately 2 weeks later, hybridoma colonies were isolated into 96 well plates and individual supernatants were tested for reactivity with C35 by ELISA, Western blot, and immunohistochemistry. Positive hybridomas colonies were subcloned and screened for reactivity twice to ensure clonality. Antibodies were isolated from hybridoma supernatants by protein G affinity purification using standard methods. […] In addition, we have developed intracellular staining flow cytometry assays for quantitative analysis using antibodies from hybridoma cell line 1F2 conjugated to Alexa-647 flourochrome. Each of these antibodies is distinct, yet both are specific for C35 protein. […]

C35 protein [4] = biological target: T1, C35 protein; assay: ELISA and Western Blot of hybridoma antibodies; format: binding; details: ELISA and Western Blot assays
Experimental: as §1

[5] = biological target: T2, C35 positive tumors and cell lines (Homo sapiens, UniProt Q9BRT3); assay: Immunohistochemistry of formalin fixed, paraffin embedded samples; format: binding
T2 construct: from tissue
T2 sequence (Q9BRT3 1-115): T1 sequence (Q9BRT3 1-115)
Experimental: as §1

[6] = biological target: T3, recombinant human C35 (rhC35) (Homo sapiens, UniProt Q9BRT3); assay: Epitope localization by Western blot of Lys-C digested rhC35; format: binding; details: native C35 sequence numbering; 1 μg/ml antibody
T3 construct: made in house; host or cells: E. coli
T3 sequence (Q9BRT3 1-115): T1 sequence (Q9BRT3 1-115)
From the text: (§2) To localize the epitope specificity of 1B3 and 1F2 antibodies, recombinant human C35 (rhC35) synthesized with a 6× His tag in E. coli was digested with Lys-C endoproteinase. This enzyme cuts after lysine (K) residues in the protein sequence. […] The full sequence of rhC35, including the amino terminal 6× His tag addition is shown. Amino acid positions are numbered relative to the amino terminal methionine (M) of the native human sequence. Note that digestion at the first and third lysine followed by negatively charged residues is inefficient and some longer combination fragments may be generated. Lys-C endoproteinase was added to purified rhC35 at a […] weight ratio and incubated for 18 hours at 37° C. in 25 mM Tris, pH 8.0. The digest was ethanol precipitated and resolubilized in reducing Tricine sample buffer. After heating 5 minutes at 100° C., samples were separated by electrophoresis on a 16% Tricine gel (Invitrogen). Peptides were transferred to PVDF membranes and the blots depicted in FIG. 10 were either stained with Coomassie blue (lanes 1-3 of both left and right panels) to detect all peptides or processed with one of the following: 1 μg/ml of the murine 1F2 anti-C35 antibody followed by alkaline phosphatase conjugated goat anti-mouse antibody (lane 4 of left panel); 1 μg/ml of the 1B3 anti-C35 immunoglobulin variable regions linked to human constant regions (MAb11) followed by alkaline phosphatase conjugated goat anti-human antibody (lane 5 of left panel); or anti-6× His tag mouse antibody (Amersham) followed by alkaline phosphatase conjugated goat anti-mouse antibody (lane 4 and 5 of right panel). BCIP/NBT substrate was added and developed to detect the secondary reagents. Molecular weight markers are indicated in the flanking lanes of both panels.
(§3) In FIG. 10, the indicated band A migrates at the position of undigested rhC35. Note that band B stains with 1F2 but not MAb11 (1B3) anti-C35 antibody while band C stains with neither 1F2 nor MAb11 (1B3) antibody. Since bands B and C both do stain with anti-6× His tag antibody to the 6× His tag at the amino terminus of rhC35, it may be concluded that both fragments lack C-terminal peptide fragments. […] This epitope is not required for staining with 1F2.

[7] = biological target: T4, recombinant human C35 (rhC35) (Homo sapiens, UniProt Q9BRT3); assay: as above; format: binding; details: Western blot, 1 μg/ml antibody
T4 construct: made in house; host or cells: E. coli
T4 sequence (Q9BRT3 1-52): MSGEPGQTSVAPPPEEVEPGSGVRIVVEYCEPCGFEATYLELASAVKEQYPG
From the text: as §2, §3

[8] = biological target: T5, recombinant human C35 (rhC35) (Homo sapiens, UniProt Q9BRT3); assay: as above; format: binding; details: Western blot, 1 μg/ml antibody; remark: listed apart in the source
T5 construct: made in house; host or cells: E. coli
T5 sequence (Q9BRT3 1-104): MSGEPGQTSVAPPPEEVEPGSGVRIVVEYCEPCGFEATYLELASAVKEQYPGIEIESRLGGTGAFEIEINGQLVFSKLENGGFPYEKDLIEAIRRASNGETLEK
From the text: as §2, §3

[9] = biological target: T6, C35 on surface membrane of breast tumor cells that express the C35 tumor antigen (Homo sapiens, UniProt Q9BRT3); assay: C35 surface staining of breast tumor cells after mitomycin C induced apoptosis (flow cytometry); format: cell-based; details: 50 ng Alexa 647 conjugated antibody
T6 construct: A line of continuously growing breast tumor cells that express the C35 tumor antigen; endogenous in cells
T6 sequence (Q9BRT3 1-115): T1 sequence (Q9BRT3 1-115)
Experimental: (§4) A line of continuously growing breast tumor cells that express the C35 tumor antigen was either treated with 6 ug/ml mitomycin C or left untreated. After continued in vitro culture for 48 hours to allow apoptosis to develop, cells were harvested, washed and stained with 50 ng of 1F2 monoclonal anti-C35 antibody or a mouse IgG antibody control each conjugated to the fluorescent dye Alexa 647. Following 50 minutes incubation at 25C, cells were stained with Annexin V and propidium iodide (PI) using a standard commercial kit (Pharmingen). Cells were analyzed for staining with Annexin V, propidium iodide and Alexa 647 by flow cytometry employing standard protocols.

[10] = biological target: T7, C35 on surface membrane of 21MT1 breast tumor cells (Homo sapiens, UniProt Q9BRT3); assay: C35 surface staining of breast tumor cells after radiation induced apoptosis (flow cytometry); format: cell-based; details: 50 ng Alexa 647 conjugated antibody
T7 construct: 21MT1, derived from breast carcinoma, naturally expresses high levels of C35; endogenous in cells; host or cells: 21MT1 breast tumor cells
T7 sequence (Q9BRT3 1-115): T1 sequence (Q9BRT3 1-115)
Experimental: as §4, with “either irradiated” for “either treated”, “with 300 Gy” for “with 6 ug/ml mitomycin C”, “for several days” for “for 48 hours”

[11] = untreated live cells (PI negative), Annexin V negative

CC(=O)O[C@H]1C(=O)[C@@]2(C)[C@H]([C@H](OC(=O)c3ccccc3)[C@]3(O)C[C@H](OC(=O)[C@H](O)[C@@H](NC(=O)c4ccccc4)c4ccccc4)C(C)=C1C3(C)C)[C@]1(OC(C)=O)CO[C@@H]1C[C@@H]2O [Taxol, paclitaxel]
induction of apoptosis with exposure of C35 on the cell surface (21MT1 tumor cells): induces apoptosis | Maximum Tolerated Dose [1]: No toxicity^2

COc1cccc2c1C(=O)c1c(O)c3c(c(O)c1C2=O)C[C@@](O)(C(=O)CO)C[C@@H]3O[C@H]1C[C@H](N)[C@H](O)[C@H](C)O1 [Adriamycin, Doxorubicin]
MTD [2]: 10 mg/kg

B1: 1F2: mouse monoclonal anti-C35 antibody from hybridoma 1F2, gamma1 isotype, kappa light chain; VH SEQ ID NO:4, VK SEQ ID NO:6 (antibody, listed as Mus sp., V domains shown)
VH: DVQLQESGPGLVKPSQSLSLTCSVTGYSITSGYFWNWIRQFPGNKLEWMGYISYDGSNNSNPSLKNRISFTRDTSKNQFFLKFNSVTTDDSAAYYCTRGTTGFAYWGQGTLVTVSA
VL: QIVLTQSPAIMSASPGEKVTISCSASSSVSYMNWYQQKPGSSPKPWIYHTSNLASGVPARFSGSGSGTSYSLTISSMEAEDAATYYCQQYHSYPPTFGGGTKLEIK
epitope comparison by competition (C35 protein [3]): bind different epitopes of the C35 protein | binding to recombinant C35 protein (C35 protein [4]): specifically bind recombinant C35 protein | immunohistochemical staining [5]: specifically stain formalin fixed, paraffin embedded C35 positive tumors and cell lines | epitope specificity [6]: residues 53-104 | staining of approximately 8 kDa band C (in addition lacks residues 53-104) [7]: does not react | staining of approximately 15 kDa band B (lacks C35 residues 105-115) [8]: stains | differential staining versus isotype control antibody ([9]; 6 ug/ml mitomycin C, 48 hours, viable (PI negative), undergoing apoptosis (Annexin V positive)): clearly differentially stained | differential staining versus isotype control antibody [9, 11]: absence of differential staining | differential staining versus isotype control antibody ([10]; irradiated (300 Gy) tumor cells, viable (PI negative), undergoing apoptosis (Annexin V positive)): clearly differentially stained | differential staining versus isotype control antibody [10, 11]: absence of differential staining
